B1: PA328 (ssRNA)
RNA: GGGAGACAAGAAUAAACGCUCAAGCAAAAGGCGUAAAUACACCUCCGCAACUGGGAAGAAGACGCAGGGACGGUUCGACAGGAGGCUCACAACAGGC
modifications: 2'-NH2 on all C and U [2'-NH2 on all C and U; N83 in fixed region = A]
B2: PA338 (ssRNA)
RNA: GGGAGACAAGAAUAAACGCUCAAUCAAGUAAGGAGGAAGGGUCGUGACAGAAAAACGAGCAAAAAACGCGAGUUCGACAGGAGGCUCACAACAGGC
modifications: 2'-NH2 on all C and U
B3: PA337 (ssRNA)
RNA: GGGAGACAAGAAUAAACGCUCAAACAGCUACAAGUGGGACAACAGGGUACAGCGGAGAGAAACAUCCAAACAAGUUCGACAGGAGGCUCACAACAGGC
modifications: 2'-NH2 on all C and U
B4: PA330 (ssRNA)
RNA: GGGAGACAAGAAUAAACGCUCAAAACGCACAAAGUAAGGGACGGGAUGGAUCGCCCUAGGCUGGAAGGGAACUUCGACAGGAGGCUCACAACAGGC
modifications: 2'-NH2 on all C and U
B5: PA341 (ssRNA)
RNA: GGGAGACAAGAAUAAACGCUCAAGCCCCAAACGCAAGCGAGCAUCCGCAACAGGGAAGAAGACAGACGAAUGAUUCGACAGGAGGCUCACAACAGGC
modifications: 2'-NH2 on all C and U
B6: PA477 (ssRNA)
RNA: GGGAGACAAGAAUAAACGCUCAAGCCCCAAACGCAAGUGAGCAUCCGCAACAGGGAAGAAGACAGACGAAUGAUUCGACAGGAGGCUCACAACAGGC
modifications: 2'-NH2 on all C and U [2'-NH2 on all C and U; n18 in fixed region = G]
B7: PA335 (ssRNA)
RNA: GGGAGACAAGAAUAAACGCUCAAUGAUAUACACGUAAGCACUGAACCAGGCUGAGAUCCAUCAGUGCCCAGGUUCGACAGGAGGCUCACAACAGGC
modifications: 2'-NH2 C and U
B8: PA325 (ssRNA)
RNA: GGGAGACAAGAAUAAACGCUCAAACGAGAGCACCAAGGCAACAGAUGCAGAAGAAGUGUGCGCGCGCGAAAUUCGACAGGAGGCUCACAACAGGC
modifications: 2'-NH2 C and U
B9: PA318 (ssRNA)
RNA: GGGAGACAGAAUAAACGCUCAAAGACCAAGGGACAGCAGCGGGGAAAAACAGAUCACAGCUGUAAGAGGGCUUCGACAGGAGGCUCACAACAGGC
modifications: 2'-NH2 C and U
B10: PA463 (ssRNA)
RNA: GGGAGACAAGAAUAAACGCUCAAGGGAAACGGAAAGGGACAAGGCGAACAGACGAGAAGUAGACGGAGUAGGAUUCGACAGGAGGCUCACAACAGGC
modifications: 2'-NH2 C and U
B11: PA351 (ssRNA)
RNA: GGGAGACAAGAAUAAACGCUCAAUGAUAGCACAGUGUAUAAGAAAACGCAACACCGCGCGCGGAAAGAGUUCGACAGGAGGCUCACAACAGGC
modifications: 2'-NH2 C and U
B12: PA447 (ssRNA)
RNA: GGGAGACAAGAAUAAACGCUCAAAACAGAACUGAUCGGCGCAGGUUGAUAAAGGGGCAGCGCGAAGAUCACAAUUCGACAGGAGGCUCACAACAGGC
modifications: 2'-NH2 C and U
B13: PA329 (ssRNA)
RNA: GGGAGACAAGAAUAAACGCUCAAGAAGGAUACUUAGGACUACGUGGGAUGGGAUGAAAUGGGAGAACGGGAGUUCGACAGGAGGCUCACAACAGGC
modifications: 2'-NH2 C and U
B14: PA354 (ssRNA)
RNA: GGGAGACAAGAAUAAACGCUCAAGCAAUGGAACGCUAGGAGGGAACAUAAGCAGGGCGAGCGGAGUCGAUAGCUUCGACAGGAGGCUCACAACAGGC
modifications: 2'-NH2 C and U
B15: PA315 (ssRNA)
RNA: GGGAGACAAGAAUAAACGCUCAAUAACAAAGCAGCAAAGUACCAGAGGAGAGUUGGCAGGGUUUAGGCAGCUUCGACAGGAGGCUCACAACAGGC
modifications: 2'-NH2 C and U
B16: PA352 (ssRNA)
RNA: GGGAGACAAGAAUAAACGCUCAAGAUCAUCGCAGUAUCGGAAUCGACCCUCAGUGGGUGACAUGCGGACAAGUUCGACAGGAGGCUCACAACAGGC
modifications: 2'-NH2 C and U
B17: PA320 (ssRNA)
RNA: GGGAGACAAGAAUAAACGCUCAAGAGUAUCACACAAACCGGCACGGACUAAGCAGAAGGAGGUACGGAAGAUUCGACAGGAGGCUCACAACAGGC
modifications: 2'-NH2 C and U
B18: PA319 (ssRNA)
RNA: GGGAGACAAGAAUAAACGCUCAAAGUCGGGGAUAGAAACACACUAAGAAGUGCAUCAGGUAGGAGAUAAUUCGACAGGAGGCUCACAACAGGC
modifications: 2'-NH2 C and U [all C and U 2'-NH2]
B19: PA327 (ssRNA)
RNA: GGGAGACAAGAAUAAACGCUCAAUAAGACAACGAACAGACAGAAGCGAAAAAGGGGCGCCGCAGCAACAACAAAUUCGACAGGAGGCUCACAACAGGC
modifications: 2'-NH2 C and U
B20: PA342 (ssRNA)
RNA: GGGAGACAAGAAUAAACGCUCAACCAACGCGCACCCCGCAGCAAACGAAAUUGGGGAGACAGGUGCAAGACAGUUCGACAGGAGGCUCACAACAGGC
modifications: 2'-NH2 C and U
B21: PA301 (ssRNA)
RNA: GGGAGACAAGAAUAAACGCUCAAACACAAAUCGGGCAGGGACUGGGUUGGGCACGGCAGGGCGCCUUCGACAGGAGGCUCACAACAGGC
modifications: 2'-NH2 C and U
B22: PA336 (ssRNA)
RNA: GGGAGACAAGAAUAAACGCUCAAGAUCAUAACGAGAGGAGAGGGAGAACUACACGCGCGCGAGGAAAGAGUUCGACAGGAGGCUCACAACAGGC
modifications: 2'-NH2 C and U
B23: PA353 (ssRNA)
RNA: GGGAGACAAGAAUAAACGCUCAAGUACCGGGAAGGGAUGAACUGGGAUAUGGGAACGGAGGUCAGAGGCACGAUUCGACAGGAGGCUCACAACAGGC
modifications: 2'-NH2 C and U
B24: PF411 (ssRNA)
RNA: GGGAGACAAGAAUAAACGCUCAACAACCCAACCAUCUAGAGCUUCGAACCAUGGUAUACAAGGGAACACAAAAUUCGCGGAGGCUCCAACAGGCGGC
modifications: 2'-F C and U
B25: PF381 (ssRNA)
RNA: GGGAGACAAGAAUAAACGCUCAAAGGAUCACACAAACAUCGGUCAAUAAAUAAGUAUUGAUAGCGGGGAUAUUCGACAGGAGGCUCACAACAGGC
modifications: 2'-F C and U
B26: PF380 (ssRNA)
RNA: GGGAGACAAGAAUAAACGCUCAACGAGCAAAAGUACUCACGGGACCAGGAGAUCAGCAACACGCGAGACGAAAUUCGACAGGAGGCUCACAACAGGC
modifications: 2'-F C and U
B27: PA341 (ssRNA)
RNA: GGGAGACAAGAAUAAACGCUCAAGCCCCAAACGCAAGCGAGCAUCCGCAACAGGGAAGAAGACAGACGAAUGAUUCGACAGGAGGCUCACAACAGGC
modifications: 2'-NH2 C and U
B28: PF422 (ssRNA)
RNA: GGGAGACAAGAAUAAACGCUCAACGUCAAGCCAGAAUCCGGAACACGCGAGAAAACAAAUCAACGACCAAUCGAUUCGACAGGAGGCUCACAAAGGC
modifications: 2'-F C and U

target: T1, P-selectin (PS-Rg) (Homo sapiens, UniProt P16109 P16109:42-321); experiment: filter; 37 C; conditions: tags: human IgG1 Fc fusion; chain copies: dimer; label: 32P
T1 sequence (P16109 42-321, one chain of several): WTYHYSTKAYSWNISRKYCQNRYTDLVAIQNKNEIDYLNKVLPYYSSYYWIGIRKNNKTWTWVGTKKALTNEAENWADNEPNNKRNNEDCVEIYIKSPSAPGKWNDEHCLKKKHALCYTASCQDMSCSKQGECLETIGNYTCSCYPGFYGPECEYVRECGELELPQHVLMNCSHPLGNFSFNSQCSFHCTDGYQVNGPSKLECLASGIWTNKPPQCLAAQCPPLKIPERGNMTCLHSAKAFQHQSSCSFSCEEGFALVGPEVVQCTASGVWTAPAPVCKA

Compared with B1, B2 is 19-fold higher in Kd: 3 nM for the first, 57 nM for the second.

First: B3
Second: B4
The Kd of the first is 19-fold higher: 4.5 nM for the first, 0.237 nM for the second. The second binds more tightly here.

B5 and B6 are within 1.5-fold of each other in Kd: 0.44 nM for the first, 0.57 nM for the second.

same assay, conditions: tags: human IgG Fc fusion; chain copies: 2 (stated dimer)

B7 and B8 cannot be ordered by Kd: 10.5 nM for the first, greater than 10 nM for the second.

First: B9
Second: B10
The Kd of the first is 4-fold lower: 2 nM for the first, 8 nM for the second. The first binds more tightly here.

Compared with B11, B12 is 25-fold higher in Kd: 2 nM for the first, 50 nM for the second.

B13 and B14 are within 1.5-fold of each other in Kd: 4 nM for the first, 5 nM for the second.

B15 and B16 are within 1.5-fold of each other in Kd: 5 nM for the first, 6 nM for the second.

Going from B17 to B18, the Kd rises from 4.5 nM to 11 nM (2.4-fold).

First: B19
Second: B20
The Kd of the first is 3.4-fold higher: 13.5 nM for the first, 4 nM for the second. The second binds more tightly here.

Going from B21 to B22, the Kd rises from 2.5 nM to 15 nM (6-fold). The first binds more tightly here.

B23 was tested, and the Kd was 9 nM.

target: T1, P-selectin (PS-Rg); experiment: filter; HSMC; conditions: tags: human IgG1 Fc fusion; chain copies: dimer

Compared with GAAUCCGGAACACGCGAGAAAACAAAUCAACGACCAAUCGAUUCG (ssRNA, 2'-F on all C and U), CUCAACGAAUCAGUAAACAUAACACCAUGAAACAUAAAUAGCACGCGAG (ssRNA, 2'-F on all C and U) is 18-fold lower in Kd: 1 nM for the first, 0.056 nM for the second. The second binds more tightly here.

For CUCAACGAGCCAGGACUACGAUCAGCAAACGCGAG (ssRNA, 2'-F on all C and U), the Kd was 0.22 nM.

target: T1, P-selectin (PS-Rg); experiment: inhibition; sialyl-LewisX; conditions: tags: human IgG Fc fusion; chain copies: 2 (stated dimer)
Procedure: The ability of evolved RNA pools or cloned ligands to inhibit the binding of PS-Rg to sialyl-Lewis^x was tested in competitive ELISA assays (C. Foxall et al., 1992, supra). For these assays, the wells of Corning (25801) 96 well microtiter plates were coated with 100 ng of a sialyl-Lewis^x/BSA conjugate, air dried overnight, washed with 300 μl of PBS(−) and then blocked with 1% BSA in HSMC for 60 min at room temperature. RNA ligands were incubated with PS-Rg in HSMC/1% BSA at room temperature for 15 min. After removal of the blocking solution, 50 μl of PS-Rg (10 nM) or a PS-Rg (10 nM)/RNA ligand mix was added to the coated, blocked wells and incubated at room temperature for 60 minutes. The binding solution was removed, wells were washed with 300 μl of PBS(−) and then probed with HRP conjugated anti-human IgG, at room temperature to quantitate PS-Rg binding. After a 30 minute incubation at room temperature in the dark with OPD peroxidase substrate (Sigma P9187), the extent of PS-Rg binding and percent inhibition was determined from the OD₄₅₀.

Going from GAAUCCGGAACACGCGAGAAAACAAAUCAACGACCAAUCGAUUCG (ssRNA, 2'-F C and U) to B24, the IC50 falls from 8 nM to 2 nM (4-fold). The second is the more potent here.

Going from B25 to B26, the IC50 rises from 1 nM to 4 nM (4-fold).

CUCAACGAAUCAGUAAACAUAACACCAUGAAACAUAAAUAGCACGCGAG (ssRNA, 2'-F C and U) and CUCAACGAGCCAGGACUACGAUCAGCAAACGCGAG (ssRNA, 2'-F C and U) are within 1.5-fold of each other in IC50: 3 nM for the first, 4 nM for the second.

CUCAACGAGCCAGGAACAUCGACGUCAGCAAACGCGAG (ssRNA, 2'-F C and U) [PF377s1] and CUCAACGAGCCAGGAACAUCGACGUCAGCAAACGCGAG (ssRNA, 2'-F C and U, 5' NH2) [PF377s1-5'NH2] are the same in IC50: 2 nM for the first, 2 nM for the second.

Compared with CUCAACGAGCCAGGAACAUCGACGUCAGCAAACGCGAG (ssRNA, 2'-F C and U; 2'-OMe G 7,9,14 and A 8,15,18,27,31) [PF377M5], B27 is 1.5-fold higher in IC50: 2 nM for the first, 3 nM for the second. The first is the more potent here.

Going from CUCAACGCACCAGGAACAACGAGAACCAUCAGUAAACGCGAG (ssRNA, 2'-F C and U) [PF387s1] to CUCAACGCACCAGGAACAACAAGAACCAUCAGUAAGCGCGAG (ssRNA, 2'-F C and U) [PF383s1], the IC50 rises from 2 nM to 25 nM (12-fold).

B28 showed an IC50 of 3 nM.

From US20030059769, “High affinity nucleic acid ligands to lectins” (published 2003)
